For two molecules, Kd results are on record in publication doi:10.1101/2022.08.09.502851, “Dystroglycan N-terminal domain enables LARGE1 to extend matriglycan on α-dystroglycan and prevents muscular dystrophy” (bioRxiv, 2022).

This assay deals with T1, laminin-111 (mouse Engelbreth-Holm-Swarm (EHS) laminin) (mouse, UniProt P19137 25-3083; P02469 22-1786; P02468 34-1607).
T1 construct: laminin subunit alpha-1 of laminin-111, mouse EHS laminin; laminin subunit beta-1 of laminin-111, mouse EHS laminin; laminin subunit gamma-1 of laminin-111, mouse EHS laminin; source: bought: ThermoFisher, 23017015 (mouse Engelbreth-Holm-Swarm laminin); copies: + +
As to the kind of experiment: ELISA; solid-phase assay: WGA eluates of skeletal muscle diluted 1:50 in TBS coated on polystyrene microplates overnight at 4 °C; Laminin-111 in laminin-binding buffer; bound laminin detected with L9393 and HRP anti-rabbit IgG, absorbance at 490 nm; three replicates for each group. As to conditions: one partner purified. In general terms: In an ELISA, binding on a coated surface is turned into a signal by an enzyme label.

Where a chain is given by its changes, count along the chain named. Names and notes keep the numbering of the source.

B1: α-dystroglycan (α-DG), wild type, with full-length matriglycan, from control (WT littermate or C57BL/6J) mouse skeletal muscle (receptor, mouse (endogenous in skeletal muscle), UniProt Q62165 28-651, looked up)
chain: HWPSEPSEAVRDWKNQLEASMHSVLSDFQEAVPTVVGIPDGTAVVGRSFRVSIPTDLIASSGEIIKVSAAGKEALPSWLHWDPHSHILEGLPLDTDKGVHYISVSAARLGANGSHVPQTSSVFSIEVYPEDHNEPQSVRAASSDPGEVVPSACAADEPVTVLTVILDADLTKMTPKQRIDLLNRMQSFSEVELHNMKLVPVVNNRLFDMSAFMAGPGNAKKVVENGALLSWKLGCSLNQNSVPDIRGVETPAREGAMSAQLGYPVVGWHIANKKPTLPKRLRRQIHATPTPVTAIGPPTTAIQEPPSRIVPTPTSPAIAPPTETMAPPVRDPVPGKPTVTIRTRGAIIQTPTLGPIQPTRVSEAGTTVPGQIRPTLTIPGYVEPTAVITPPTTTTKKPRVSTPKPATPSTDSSTTTTRRPTKKPRTPRPVPRVTTKAPITRLETASPPTRIRTTTSGVPRGGEPNQRPELKNHIDRVDAWVGTYFEVKIPSDTFYDNEDTTTDKLKLTLKLREQQLVGEKSWVQFNSNSQLMYGLPDSSHVGKHEYFMHATDKGGLSAVDAFEIHVHKRPQGDKAPARFKARLAGDPAPVVNDIHKKIALVKKLAFAFGDRNCSSITLQNITRG
modifications: matriglycan [-GlcA-β1,3-Xyl-α1,3-]n, full length (α-DG of ~150-250 kDa); extensive O-glycosylation
notes: α-dystroglycan, the α-subunit cut from the DG pre-proprotein (Dag1), mouse; also called α-DG (WT)
Turning to B1, the Kd amounted to 0.966 ± 0.069 nM.

B2: α-dystroglycan with the knock-in mutation T190M, from Dag1 T190M mouse skeletal muscle (receptor, UniProt Q62165 28-651, looked up)
chain: B1 chain with T163M
modifications: matriglycan shorter than wild type (α-DG laminin-binding band at ~100-150 kDa)
notes: α-dystroglycan, the α-subunit cut from the DG pre-proprotein (Dag1), mouse, knock-in T190M (Hara et al., 2011); also called α-DGN mutant (T190M)
The molecule B2 displayed a Kd of 1.9 ± 0.199 nM.

The term Kd denotes the equilibrium constant for the complex coming apart. Low values mean higher affinity, high ones lower affinity.
